Where a chain is given by its changes, count along the chain named. Read-outs that look alike come from different tables or passages of the source.
Legend:
[1] = target: Factor XIa (activated factor XI), human plasma (human); assay: enzyme inhibition kinetics
[2] = target: Factor XIa (activated factor XI), human plasma (human); assay: enzyme inhibition kinetics; remark: listed apart in the source
[3] = target: FXa-R240A (heparin-binding exosite mutant of factor Xa) (UniProt P00742); assay: enzyme inhibition kinetics
[4] = target: Factor Xa (activated factor X), human plasma (human); assay: enzyme inhibition kinetics
[5] = target: Factor Xa (activated factor X), human plasma (human); assay: titration of protease activity
[6] = target: Factor Xa (activated factor X), human plasma (human); assay: enzyme inhibition kinetics; remark: listed apart in the source
[7] = target: Factor Xa (activated factor X), human plasma (human); assay: titration of protease activity; remark: listed apart in the source
[8] = target: Factor XIa (activated factor XI), human plasma (human); assay: titration of protease activity
[9] = target: Factor XIa (activated factor XI), human plasma (human); assay: titration of protease activity; remark: listed apart in the source
[10] = target: Factor Xa (activated factor X), human plasma (human); assay: titration of protease activity; remark: listed apart in the source
[11] = target: FXa-R240A (heparin-binding exosite mutant of factor Xa) (UniProt P00742); assay: enzyme inhibition kinetics; remark: listed apart in the source
[12] = target: Factor Xa (activated factor X), human plasma (human); assay: enzyme inhibition kinetics; remark: listed apart in the source

Factor Xa (activated factor X), human plasma (human), sequence (P00742 whole entry): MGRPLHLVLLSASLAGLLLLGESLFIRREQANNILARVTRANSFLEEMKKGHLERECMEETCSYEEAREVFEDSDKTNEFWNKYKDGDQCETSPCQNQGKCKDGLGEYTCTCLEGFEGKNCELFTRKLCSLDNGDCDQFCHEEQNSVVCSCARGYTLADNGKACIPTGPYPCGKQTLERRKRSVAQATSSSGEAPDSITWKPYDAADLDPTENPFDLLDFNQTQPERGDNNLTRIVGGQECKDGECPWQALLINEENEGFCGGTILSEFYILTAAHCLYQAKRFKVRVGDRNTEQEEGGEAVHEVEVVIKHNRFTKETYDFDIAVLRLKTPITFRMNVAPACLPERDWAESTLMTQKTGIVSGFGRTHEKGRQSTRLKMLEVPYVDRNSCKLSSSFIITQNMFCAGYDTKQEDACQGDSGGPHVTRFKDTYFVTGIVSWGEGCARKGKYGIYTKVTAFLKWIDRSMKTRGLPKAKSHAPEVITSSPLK

B1: Protein Z-dependent protease inhibitor, wild type (natural protein)
chain: LAPSPQSPETPAPQNQTSRVVQAPKEEEEDEQEASEEKASEEEKAWLMASRQQLAKETSNFGFSLLRKISMRHDGNMVFSPFGMSLAMTGLMLGATGPTETQIKRGLHLQALKPTKPGLLPSLFKGLRETLSRNLELGLTQGSFAFIHKDFDVKETFFNLSKRYFDTECVPMNFRNASQAKRLMNHYINKETRGKIPKLFDEINPETKLILVDYILFKGKWLTPFDPVFTEVDTFHLDKYKTIKVPMMYGAGKFASTFDKNFRCHVLKLPYQGNATMLVVLMEKMGDHLALEDYLTTDLVETWLRNMKTRNMEVFFPKFKLDQKYEMHELLRQMGIRRIFSPFADLSELSATGRNLQVSRVLQRTVIEVDERGTEAVAGILSEITAYSMPPVIKVDRPFHFMIYEETSGMLLFLGRVVNPTLL
A k2(app) (apparent second-order association rate constant of inhibition) [1] of 420000 M⁻¹ s⁻¹, a k2(app) (apparent second-order association rate constant of inhibition) [2] of 58000 M⁻¹ s⁻¹ and a k2 (second-order association rate constant of inhibition) [3] of 2800 M⁻¹ s⁻¹ were found for B1 in this work. For the same binder, the k2(app) (apparent second-order association rate constant of inhibition) [4] was 3400 M⁻¹ s⁻¹, the SI (stoichiometry of inhibition) [5] was 4.1 mol I/mol E and the k2(app) (apparent second-order association rate constant of inhibition) [6] was 2.5e+06 M⁻¹ s⁻¹. The SI (stoichiometry of inhibition) [7] was 2.8 mol I/mol E, the SI (stoichiometry of inhibition) [8] was 4.3 mol I/mol E and the SI (stoichiometry of inhibition) [9] was 10.2 mol I/mol E. For the same binder, the SI (stoichiometry of inhibition) [10] was 3.8 mol I/mol E, the k2 (second-order association rate constant of inhibition) [11] was 30000 M⁻¹ s⁻¹ and the k2(app) (apparent second-order association rate constant of inhibition) [12] was 180000 M⁻¹ s⁻¹.

B2: ZPI single mutant with Lys-125 substituted with Ala (natural protein)
chain: B1 chain with K104A
For B2, the fold decrease in reactivity in the presence of heparin [2] was < 2 fold and the fold decrease in reactivity in the presence of heparin [4] was < 2 fold.

B3: ZPI-3A (ZPI with Lys-113, Lys-116 and Lys-125 substituted with Ala) (natural protein)
chain: B1 chain with K113A, K116A, K125A
A k2(app) (apparent second-order association rate constant of inhibition) [1] of 260000 M⁻¹ s⁻¹, a k2(app) x SI (second-order rate constant corrected for SI) [1] of 1.4e+06 M⁻¹ s⁻¹ and a k2(app) (apparent second-order association rate constant of inhibition) [2] of 41000 M⁻¹ s⁻¹ were found for B3 in this work. It also gave a k2(app) x SI (second-order rate constant corrected for SI) [2] of 540000 M⁻¹ s⁻¹, a k2(app) (apparent second-order association rate constant of inhibition) [4] of 2600 M⁻¹ s⁻¹ and a k2(app) x SI (second-order rate constant corrected for SI) [4] of 12000 M⁻¹ s⁻¹. The SI (stoichiometry of inhibition) [5] was 4.5 mol I/mol E, the k2(app) (apparent second-order association rate constant of inhibition) [6] was 2e+06 M⁻¹ s⁻¹ and the k2(app) x SI (second-order rate constant corrected for SI) [6] was 6.6e+06 M⁻¹ s⁻¹. It also gave an SI (stoichiometry of inhibition) [7] of 3.3 mol I/mol E, an SI (stoichiometry of inhibition) [8] of 5.2 mol I/mol E and an SI (stoichiometry of inhibition) [9] of 13.3 mol I/mol E. For the same binder, the SI (stoichiometry of inhibition) [10] was 3.8 mol I/mol E, the k2(app) (apparent second-order association rate constant of inhibition) [12] was 95000 M⁻¹ s⁻¹ and the k2(app) x SI (second-order rate constant corrected for SI) [12] was 360000 M⁻¹ s⁻¹.

B4: ZPI single mutant with Lys-116 substituted with Ala (natural protein)
chain: B1 chain with K116A
For B4, the fold decrease in reactivity in the presence of heparin [2] was < 2 fold and the fold decrease in reactivity in the presence of heparin [4] was < 2 fold.

B5: ZPI single mutant with Lys-113 substituted with Ala (natural protein)
chain: B1 chain with K113A
B5 was tested, and the fold decrease in reactivity in the presence of heparin [2] was < 2 fold and the fold decrease in reactivity in the presence of heparin [4] was < 2 fold.

B6: ZPI single mutant with Arg-128 substituted with Ala (natural protein)
chain: B1 chain with R128A
With B6 the fold decrease in reactivity in the presence of heparin [2] was < 2 fold and the fold decrease in reactivity in the presence of heparin [4] was < 2 fold.

B7: ZPI-des-NT (ZPI with the first 52 residues of the acidic N-terminal tail deleted) (domain or fragment)
chain: QLAKETSNFGFSLLRKISMRHDGNMVFSPFGMSLAMTGLMLGATGPTETQIKRGLHLQALKPTKPGLLPSLFKGLRETLSRNLELGLTQGSFAFIHKDFDVKETFFNLSKRYFDTECVPMNFRNASQAKRLMNHYINKETRGKIPKLFDEINPETKLILVDYILFKGKWLTPFDPVFTEVDTFHLDKYKTIKVPMMYGAGKFASTFDKNFRCHVLKLPYQGNATMLVVLMEKMGDHLALEDYLTTDLVETWLRNMKTRNMEVFFPKFKLDQKYEMHELLRQMGIRRIFSPFADLSELSATGRNLQVSRVLQRTVIEVDERGTEAVAGILSEITAYSMPPVIKVDRPFHFMIYEETSGMLLFLGRVVNPTLL
A k2(app) (apparent second-order association rate constant of inhibition) [1] of 110000 M⁻¹ s⁻¹, a k2(app) x SI (second-order rate constant corrected for SI) [1] of 940000 M⁻¹ s⁻¹ and a k2(app) (apparent second-order association rate constant of inhibition) [2] of 29000 M⁻¹ s⁻¹ were found for B7 in this work. It also gave a k2(app) x SI (second-order rate constant corrected for SI) [2] of 450000 M⁻¹ s⁻¹, a k2(app) (apparent second-order association rate constant of inhibition) [4] of 2100 M⁻¹ s⁻¹ and a k2(app) x SI (second-order rate constant corrected for SI) [4] of 15000 M⁻¹ s⁻¹. It also gave an SI (stoichiometry of inhibition) [5] of 7.4 mol I/mol E, a k2(app) (apparent second-order association rate constant of inhibition) [6] of 1.8e+06 M⁻¹ s⁻¹ and a k2(app) x SI (second-order rate constant corrected for SI) [6] of 8.1e+06 M⁻¹ s⁻¹. The SI (stoichiometry of inhibition) [7] was 4.5 mol I/mol E, the SI (stoichiometry of inhibition) [8] was 8.5 mol I/mol E and the SI (stoichiometry of inhibition) [9] was 15.6 mol I/mol E. The SI (stoichiometry of inhibition) [10] was 7.3 mol I/mol E.

From PMC3352997
